{"source": "paper PMC3734851", "key": {"[1]": {"molecular_target": "αβ-tubulin (unpolymerized, as used in gel filtration and analytical ultracentrifugation) (yeast) (UniProt P09733)", "assay": "AUC"}, "[2]": {"molecular_target": "αβ-tubulin (unpolymerized, as used in gel filtration and analytical ultracentrifugation) (yeast) (UniProt P09733)"}, "[3]": {"molecular_target": "TOG1-TOG2 of Stu2p (yeast)", "assay": "AUC"}, "[4]": {"molecular_target": "TOG1-TOG2 of Stu2p (yeast)", "assay": "AUC", "remark": "listed apart in the source"}}, "note": "Values joined by “and” are separate entries in the source; they are usually repeats but may differ in a detail not shown here. Identical values can stand only once. Like-named read-outs stand apart in the source and are kept apart here.", "data": [{"substance": "TOG2 domain of Stu2p (domain or fragment)", "values": [{"measurement": "stoichiometry N", "setting": "[1]", "value": 1}, {"measurement": "Kd", "setting": "[2]", "value": "0.2 to 0.3", "unit": "µM"}]}, {"substance": "αβ-tubulin (unpolymerized, as used in gel filtration and analytical ultracentrifugation) (from UniProt P09733 1-447; P02557 1-457) (complex)", "values": [{"measurement": "stoichiometry N", "setting": "[3]", "value": "1 and 2"}, {"measurement": "stoichiometry N", "setting": "[4]", "value": 1}]}]}
